Measured values from article PMC7217052, “Rapid Biophysical Characterization and NMR Spectroscopy Structural Analysis of Small Proteins from Bacteria and Archaea” (Chembiochem, 2020).

Target: the molecule itself
Test: solution-state NMR structure; 5 mM protein, 50 mM sodium phosphate buffer pH 7.5, 100 mM NaCl, 298 K; best 20 structures shown as a symmetrical dimer

B1: SP-22 small protein from Haloferax volcanii (natural protein)
chain: MNKAHFEVFVDAADKYRWRLVHDNGNILADSGEGYASKQKAKQGIESVKRNAPDADVIEA
notes: source: heterologously expressed in E. coli, purified (purity above 95 %)
Question: With B1 as the protein, how does the “stoichiometry N” value read?
Answer: 2
